The text below walks through data of patent publication US20250032605A1.

Assay [1] deals with SARS-2^hg (row Trimer).
The target in assay [2] is SARS-2 RBD (wild-type SARS-CoV-2 receptor binding domain, monomer) (SARS-CoV-2) (UniProt P0DTC2). The assay is described as follows: BLI, Fab on FAB2G sensor, RBD as analyte, apparent KD.
For assay [3], the target named is SARS-1 RBD (SARS-CoV receptor binding domain, monomer) (SARS-CoV (SARS-1)) (UniProt P59594). Described as above.
For assay [4], the target named is WIV1 RBD (WIV1-CoV receptor binding domain, monomer) (WIV1-CoV). Described as above.

Turning to B38 Fab, the results for the Kd in assay [1] and in assay [2] were 3200 nM and 970 nM, respectively.
In the case of CR3022 Fab, the Kd in assay [3] came to 27 nM; in assay [4], 37 nM.
